Source: patent US20120134979A1, “METHODS AND COMPOSITIONS FOR THE TREATMENT OF SICKLE CELL DISEASE” (priority 2010, published 2012)

Tests used:
RBCs from SCD patients = experiment: Hypoxia-induced 2,3-DPG in erythrocytes purified from SCD patients; assay type: cell-based, human; conditions: hypoxic conditions (2% oxygen)
Protocol: Isolation of total erythrocytes and treatment of human and mouse erythrocytes in vitro. Blood collected with heparin as an anti-coagulant was centrifuged at 240×g for 10 min at room temperature, followed by aspiration of plasma and white interface. Packed red blood cells (RBCs) were washed 3 times with culture media (F-10 Ham's with 1% penicillin/streptomycin, 10% fetal bovine serum (FBS), and re-suspended to 4% hematocrit (HCT). One ml of RBCs was added to each well of a 12-well plate. Normal RBCs purified from humans were treated with different concentrations of 5′-(N-ethyl-carboxamido) adenosine (NECA, an adenosine receptor agonist, Sigma-Aldrich, St. Louis, Mo.) ranging from 1-50 μM for different time points (from 1 to 18 hr) under normoxic conditions. Normal RBCs were treated with 10 μM NECA in the presence or absence of adenosine receptor antagonists, including theophylline, PSB36, SCH442416, MRS1754 and MRS3777 (Tocris Bioscience, St. Louis, Mo.) at 10 μM. In addition, normal RBCs were treated directly with the A2BR agonist (BAY 60-6583, Bayer HealthCare AG, Wuppertal, Germany) or the A2AR agonist (CGS21680) (Tocris). Similarly, the mouse RBCs were treated with or without NECA at 10 μM in the presence or absence of theophylline (10 μM). In addition, RBCs purified from 4 adenosine receptor deficient mice were treated with 10 μM NECA. After 18 hours, cells were collected and 2,3-DPG levels were measured as described below. RBCs were purified from SCD patients and treated with or without 10 μM NECA, 5 units/ml polyethylene glycol-adenosine deaminase (PEG-ADA) or 3 mmol/L glycolic acid (Sigma-Aldrich), 10 μM MRS1754 (A2BR antagonist) under ambient oxygen (normoxia) or different levels of hypoxic conditions (for 3 hours with shaking at 37° C. At the end of experiments, 2,3-DPG levels were measured and the percentage of sickled cells determined as described below.
(§1) 2,3-DPG analysis. 2,3-DPG concentration in RBCs was detected by a commercially available kit (Roche, Nutley, N.J., and as described in Ericson A, de Verdier C H. A modified method for the determination of 2,3-diphosphoglycerate in erythrocytes. Scandinavian journal of clinical and laboratory investigation. 1972; 29(1):84-90).

SCD Tg mice [1] = experiment: Organ weight, histology and heme content in SCD Tg mice after chronic treatment; assay type: in vivo, mouse
Protocol: (§2) Chronic PEG-ADA therapy. SCD transgenic mice, at eight weeks of age, were divided to two groups. One group was injected with 2.5 U PEG-ADA weekly for 8 weeks. This dosing protocol was designated SCD with PEG-ADA treatment regimen (SCD+PEG-ADA). Another group was injected with normal saline for 8 weeks; it was designated as SCD without PEG-ADA treatment regimen (SCD). Wild-type mice (C57Bl/6) used as control were injected with saline or PEG-ADA as with the SCD groups.
(§3) Chronic treatment with A2BR antagonist, PSB1115. SCD transgenic mice or wild type mice (eight weeks of age) were divided to two groups, one groups was injected with 200 μg of PSB1115 (an A2B receptor antagonist: obtained from Tocris Bioscience, St. Louis, Mo.) in PBS, daily for 8 weeks. One of groups was injected with saline.
Mouse organ isolation and histological analysis. Mice were anesthetized and body weight was determined. Organs were isolated and weighed. Half of each organ was quickly frozen in liquid nitrogen and then stored at −80° C. for heme content measurements as described below. The remaining half of each organ was fixed with 4% paraformaldehyde in PBS overnight at 4° C. Fixed tissues were rinsed in PBS, dehydrated through graded ethanol washes, and embedded in paraffin. 5 μm sections were collected on slides and stained with haematoxylin and eosin (H&E). Semiquantification of histological changes was analyzed by Image-Plus, Pro software.
Heme content measurement in multiple mouse tissues. Different organs were quickly removed and frozen in liquid nitrogen as described above. Heme was extracted from organs by homogenization with 1% Triton x-100 in PBS with 1× proteinase inhibitors (Roche) and the supernatant was collected following centrifugation at 20,000 g for 10 minutes at 4° C. Heme content was quantified following the instructions of QuantiChrom Heme Assay Kit (BioAssay Systems, Hayword, Calif.).

SCD Tg mice [2] = experiment: Lung inflammation (neutrophils, cytokines) after hypoxia/reoxygenation in SCD Tg mice; assay type: in vivo, mouse; conditions: hypoxia-reoxygenation
From the text: Hypoxia/reoxygenation of SCD Tg mice. SCD Tg mice were subjected to two-hour hypoxic condition with 8% oxygen. After hypoxia, mice were returned to normoxic conditions for four hours Wallace, et al. NKT cells mediate pulmonary inflammation and dysfunction in murine sickle cell disease through production of IFN-gamma and CXCR3 chemokines. Blood. 2009; 114(3):667-676). At the end of the experiments, mice were sacrificed and blood collected for adenosine measurement, sickling and hemolytic analysis.
Immunohistochemistry to assess neutrophil infiltration in the lung. To quantify neutrophils, a specific neutrophil antibody, was used as described (Zhou, et al., Enhanced airway inflammation and remodeling in adenosine deaminase-deficient mice lacking the A2B adenosine receptor. J. Immunol. 2009; 182(12):8037-8046). Rehydrated slides were quenched with 3% hydrogen peroxide, Ag retrieval performed (Dako), and endogenous avidin and biotin blocked with a Biotin Blocking System (Dako). […] Quantification of distal airway neutrophils-positive cells was performed on 20 fields/mouse lung section at ×20 using software analysis (Image Pro Plus 4.0; Media Cybernetics, Bethesda, Md., USA).
ELISA for INF-γ, IL-6, IL-1β and GM-CSF measurement in the mouse lung homongenates. INF-γ, IL-6, IL-1β and GM-CSF levels in lung homogenates were determined using ELISA kits (QUANGI).

SCD Tg mice [3] = experiment: 2,3-DPG in RBCs and saturated Hb in SCD Tg mice after chronic treatment; assay type: in vivo, mouse
Protocol: as §2, §3, §1
Measurement of percentage of saturated Hb in mice. Percentage of saturated Hb (SpO2) in mice was measured by Oxysat (Kent Scientific Corp, CT). Mice were held in mouse holders (Kent Scientific Corp, CT) and Oxysat sensor was placed on a site approximately 1 cm from the base of the tail. When mouse was calm, the SpO2 was continuously recorded for about 2 minutes. The data were collected and SpO2 was calculated by average of SpO2 in two-minute measurement.

B1: PEG-ADA: polyethylene glycol-modified adenosine deaminase, a drug used to lower adenosine concentrations in ADA-deficient humans (protein, UniProt P56658 2-363, looked up)
Adenosine deaminase: AQTPAFNKPKVELHVHLDGAIKPETILYYGRKRGIALPADTPEELQNIIGMDKPLSLPEFLAKFDYYMPAIAGCREAVKRIAYEFVEMKAKDGVVYVEVRYSPHLLANSKVEPIPWNQAEGDLTPDEVVSLVNQGLQEGERDFGVKVRSILCCMRHQPSWSSEVVELCKKYREQTVVAIDLAGDETIEGSSLFPGHVKAYAEAVKSGVHRTVHAGEVGSANVVKEAVDTLKTERLGHGYHTLEDATLYNRLRQENMHFEVCPWSSYLTGAWKPDTEHPVVRFKNDQVNYSLNTDDPLIFKSTLDTDYQMTKNEMGFTEEEFKRLNINAAKSSFLPEDEKKELLDLLYKAYGMPSPASAEQCL
modifications: PEGylated
hypoxia-mediated induction of 2,3-DPG (RBCs from SCD patients): reduced | congestion, vascular damage and necrosis in multiple tissues (histology) (SCD Tg mice [1]; 8 weeks treatment, lung, liver, spleen (PSB1115 also kidney)): improved | heme content in lung, liver and spleen (SCD Tg mice [1]; PEG-ADA enzyme therapy): significantly decreases | microinfarction and cysts in renal cortex and congestion in renal medulla (SCD Tg mice [1]; PEG-ADA enzyme therapy): significantly improved | ratio of spleen weight to body weight (SCD Tg mice [1]; chronic treatment, untreated 4.52±0.24, p<0.05, n=8): 2.48±0.36 | neutrophil infiltration in the lungs (SCD Tg mice [2]; image quantification): significantly lowered | proinflammatory cytokines in the lungs (INF-γ, IL-6, IL-1β and GM-CSF) (SCD Tg mice [2]; lung homogenates): significantly decreased | percentage of saturated Hb (SCD Tg mice [3]; chronic PEG-ADA treatment): increased | 2,3-DPG levels in the RBCs (SCD Tg mice [3]; steady state, 8 weeks treatment): reduction
